# Tests used:
# Experiment in all cases: SEC
# [1] = molecular target: full-length EpsE-Hcp1 fusion (pET21(d)epsE(1-503)-8aa-hcp1-his6) (UniProt P37093)
# [2] = molecular target: truncated ΔN1-EpsE-Hcp1 fusion (pET21(d)epsE(100-503)-8aa-hcp1-his6) (UniProt P37093)
# [3] = molecular target: EpsE-XcpR CM-Hcp1 chimera fusion (UniProt P37093)
substance,measurement,setting,value
full-length EpsE-Hcp1 fusion (pET21(d)epsE(1-503)-8aa-hcp1-his6) (from UniProt P37093 1-503),stoichiometry N,[1],6
truncated ΔN1-EpsE-Hcp1 fusion (pET21(d)epsE(100-503)-8aa-hcp1-his6) (from UniProt P37093 100-503),stoichiometry N,[2],6
EpsE-XcpR CM-Hcp1 chimera fusion (from UniProt P37093),stoichiometry N,[3],6

# Reference: PMC5061722
